This sample holds only a part of the variants without activity.
What was measured:
biotinyl-Leu-oxazolone = experiment: self-aminoacylation, catalytic enhancement (BLO) (fold over background); higher = more active; k-Seq, kA / k0A0; sequences stand for … in GGGAAUGGAUCCACAUCUACGAAUUC…UUCACUGCAGACUUGACGAAGCUG
Summary of the method: (§1)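 Working in 50 μL HEPES/NaCl/KCl/MgCl2/CaCl2 buffer with 5% acetonitrile at pH 6.9–7.0, mutagenized RNA pools (0.43 μM; 21-nt variable region) were reacted with 2–1250 μM of each biotinyl-aminoacyl-oxazolone for 90 minutes at room temperature. Streptavidin capture followed, with quantification by triplicate qPCR and Illumina sequencing. Catalytic enhancement is reported as median kA over the uncatalyzed rate, the low-activity peak of a bimodal Gaussian fit to the data.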

biotinyl-Val-oxazolone = experiment: self-aminoacylation, catalytic enhancement (BVO) (fold over background); higher = more active; k-Seq, kA / k0A0; sequences stand for … in GGGAAUGGAUCCACAUCUACGAAUUC…UUCACUGCAGACUUGACGAAGCUG
Summary of the method: as §1

biotinyl-Met-oxazolone = experiment: self-aminoacylation, catalytic enhancement (BMO) (fold over background); higher = more active; k-Seq, kA / k0A0; sequences stand for … in GGGAAUGGAUCCACAUCUACGAAUUC…UUCACUGCAGACUUGACGAAGCUG
Summary of the method: as §1

biotinyl-Ile-oxazolone = experiment: self-aminoacylation, catalytic enhancement (BIO) (fold over background); higher = more active; k-Seq, kA / k0A0; sequences stand for … in GGGAAUGGAUCCACAUCUACGAAUUC…UUCACUGCAGACUUGACGAAGCUG
Summary of the method: as §1

biotinyl-Phe-oxazolone = experiment: self-aminoacylation, catalytic enhancement (BFO) (fold over background); higher = more active; k-Seq, kA / k0A0; sequences stand for … in GGGAAUGGAUCCACAUCUACGAAUUC…UUCACUGCAGACUUGACGAAGCUG
Summary of the method: as §1

biotinyl-Trp-oxazolone = experiment: self-aminoacylation, catalytic enhancement (BWO) (fold over background); higher = more active; k-Seq, kA / k0A0; sequences stand for … in GGGAAUGGAUCCACAUCUACGAAUUC…UUCACUGCAGACUUGACGAAGCUG
Summary of the method: as §1

Sequence | self-aminoacylation (biotinyl-Leu-oxazolone) | self-aminoacylation (biotinyl-Val-oxazolone) | self-aminoacylation (biotinyl-Met-oxazolone) | self-aminoacylation (biotinyl-Ile-oxazolone) | self-aminoacylation (biotinyl-Phe-oxazolone) | self-aminoacylation (biotinyl-Trp-oxazolone)
AAGUUUGCUAAAAGUCGUAAG [Fam3.1 aminoacylation ribozyme variant] | 0.982 | 0.971 | 1.28 | 1.12 | 25.8 | 6.5
AUUAACCUACGUCAUCGGGUG [Fam2.2 aminoacylation ribozyme variant] | 8.3 | 3.84 | 6.52 | 3.99 | 47.5 | 5.8
AAGUUUGCUGAUAGUCGUAAG [Fam3.1 aminoacylation ribozyme variant] | 0.674 | 0.93 | 0.951 | 0.854 | 0.944 | 0.823
CCACACUUCAAGCAAUCGUUG [Fam1B.1 aminoacylation ribozyme variant] | 0.776 | 0.908 | 0.877 | 0.944 | 1.26 | 1.15
AUUGACCUAGGUAAUCGGGUG [Fam2.2 aminoacylation ribozyme variant] | 3.86 | 3 | 2.92 | 3.19 | 15 | 3.73
AUUCACCUAGGCCAUCGGGUU [Fam2.2 aminoacylation ribozyme variant] | 1.03 | 1.31 | 1.52 | 1.34 | 5.49 | 0.76
AAGUGUGCUAAUGGUCGCAAG [Fam3.1 aminoacylation ribozyme variant] | 0.792 | 1.06 | 0.926 | 0.864 | 2.15 | 1.21
AACUUUACUAAUAGUCGCAAG [Fam3.1 aminoacylation ribozyme variant] | 2.26 | 1.86 | 2.23 | 2.07 | 6.76 | 2.92
CCACACUUCAAGCAAUCGGGA [Fam1B.1 aminoacylation ribozyme variant] | 1.04 | 1.8 | 1.51 | 1.55 | 1.46 | 1.87
AAGUUUGCUCAUAGUUGCAAG [Fam3.1 aminoacylation ribozyme variant] | 0.896 | 0.772 | 0.916 | 0.916 | 1.04 | 0.888
AUUACCCUGGUCAUGGGGUGA [Fam2.1 aminoacylation ribozyme variant] | 10.1 | 4.17 | 8.63 | 4.02 | 66.9 | 9.45

— the supplement of paper PMC9233669
